Values quoted from earlier work as cited in paper PMC11316025.

Target: KRAS (Homo sapiens) (UniProt P01116)

Chain of RASSF5 (Q8WWW0 whole entry): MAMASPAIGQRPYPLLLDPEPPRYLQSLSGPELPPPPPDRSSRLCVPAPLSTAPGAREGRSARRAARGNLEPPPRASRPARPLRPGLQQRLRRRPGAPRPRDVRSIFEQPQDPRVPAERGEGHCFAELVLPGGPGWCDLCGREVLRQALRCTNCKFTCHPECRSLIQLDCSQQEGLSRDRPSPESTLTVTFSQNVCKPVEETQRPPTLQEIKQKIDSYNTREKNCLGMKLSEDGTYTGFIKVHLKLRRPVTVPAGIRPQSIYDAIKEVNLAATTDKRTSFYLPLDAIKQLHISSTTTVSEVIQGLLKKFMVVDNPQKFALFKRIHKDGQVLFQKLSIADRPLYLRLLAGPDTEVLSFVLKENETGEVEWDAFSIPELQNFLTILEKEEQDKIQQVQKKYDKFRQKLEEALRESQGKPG

## RASSF5 (from UniProt Q8WWW0)
  Kd: 1700 nM
